Experiment: label from the status in PepcDB records

Row | Sequence | protein production
1 | MQAAVTVTPARLPELLLGLATVRPVFLWGAPGIGKSSLVRNFADSLGLECVSLLGTQLAPEDLIGVPQIRDGRSVFCPPESIARDEPYCLFLDELNAATPDVQKAFYSLILDRRIGNYELPKGSLVIGAGNRATDNALARPIASALVNRLTHVHLDASAKDWLVWAGENGIHPWITDHLTDRPDHLWSKPPKTEEPFSTPRSWHMLSDALHSFGQDLDEETLKVLAHGTLTPAHATAFCGYVKIVRSRFGIEAILKGEARWPSRIEDRDLLYYLAESFRGRLVKELPASKEHMSANGRQTAYRAKSLLVQLAEISVEVAQSVIASDADGNPLLPAWFLVEAARDMPRLVEARRLEHHHHHH | failed
2 | MSLNKKVFIIDKQTVYQEIDNFSASDAWRCAFIGKNWPQEKKEKIADLLFKREFDEKGNPIGMALTNWRVNIGAGSYENREAKEVDNSWNRTECFLSPDGKYDFTKQAGQQWFMKAARERGMNNFLFFTNSAPYFMTRSASTVSTDQDCINLQNDKFDDFARFLVKSAQHFREQGFHVNYISPNNEPNGQWHANSFQEGSFATKADLYRMVEELDKAISEAQIDTKILIPEVGDMKYLFEIDSIAKTPDDIIHSMFYKDGQYSVLKFKNLFNCVAAHDYWSAYPATLLVDIRNRIHKELSANGHNTKFWASEYCILEKNEEITMPASPERSINLGLYVARIIHNDLTLANASAWQWWTAVSLGEDVPIQLLPLEGSNGLSLQYDGEISTTKMLWTTANYSFFVRPGMKRIAIKPTYKISDLEAATSLMISSYTDGKEVVTVAINYSKENQVISLNCDHAQKGKVYLTTIDKNLRYMGEQPLKKLQLPARSVATIVVEDNEGHHHHHH | not failed
3 | MKWVTYRSDHGERTGVLSGDAIYAMPPDVSLLDLVGRGADGLRTAGERAVRSPAAVVALDEVTLAAPIPRPPSIRDSLCFLDHMRNCQEAMGGGRVLMDTWYRIPAFYFACPSTVLGPYDDAPTAPGSAWQDFELEIAAVIGTSGKDLTVEQAERSIIGYTIFNDWSARDLQMLEGQLRIGQAKGKDSGITLGPYLVTPDELEPYCRGGKLSLRVIALVNGTVIGSGSTAQMDWSFGEVIAYASRGVTLTPGDVFGSGTVPTCTLVEHLRPPESFPGWLHDGDVVTLQVEGLGETRQTVRTSGTPFPLALRPNPDAEPDRRGVNPAPTRVPFTRGLHEVADRVWAWTLPDGGYGFSNAGLVAGDGASLLVDTLFDLALTREMLAAMKPVTERAPITDALITHSNGDHTHGTQLLDRSVRIIAAKGTSEEIEHGPAPEMLARIQTADLGPVATRYLRDRFGHFDFSGIKLRNADLTFDRDLAIELGGRRVDLLNLGPAHTTADSVVHVADAGVLFAGDLLFIGCTPIVWAGPIANWVAACDAMIALDAPTVVPGHGPVTGPDGIRAVRGYLAHIAEQAEAAYRKGLSLPEAVETIDLGEYASWLDSERVVVNVYQRYRELDPDTPRQDLLALLVMQAEWAARHCT | failed
4 | MPKSADQGGSPASASHEALRHILDAGASMGGLQGLDEAQQQALYAIGHGAYEQGRYADALKMFCLLVACDPLEARYLLALGAAAQELGLYEHALQQYAAAAALQLDSPRPLLHGAECLYALGRRRDALDTLDMVLELCGSPERAALRERAELLRRSYARAD | failed
5 | SKIIDIKTSIIKIPLKRTFITAVRSTNHIDSLAVELTLDNGVKGYGVAPATTAITGDTLQGMQYIIREIFAPVILGSDLSDYKQTLELAFKKVMFNSAAKMAIDLAYHDLLAKEQDISVAKLLGAKANSIVTDVSISCGNVAETIQNIQNGVEANFTAIKVKTGADFNRDIQLLKALDNEFSKNIKFRFDANQGWNLAQTKQFIEEINKYSLNVEIIEQPVKYYDIKAMAEITKFSNIPVVADESVFDAKDAERVIDEQACNMINIKLAKTGGILEAQKIKKLADSAGISCMVGCMMESPAGILATASFALAEDITVADLDPLDWVAKDLYSDYITFNEPNIILKDNLKGFGFNL | not failed
6 | MSLSTFNRIHLVVLDSVGIGAAPDANNFSNAGVPDGASDTLGHISKTVGLNVPNMAKIGLGNIPRDTPLKTVPAENHPTGYVTKLEEVSLGKDTMTGHWEIMGLNITEPFDTFWNGFPEEIISKIEKFSGRKVIREANKPYSGTAVIDDFGPRQMETGELIIYTSADPVLQIAAHEDVIPLDELYRICEYARSITLERPALLGRIIARPYVGKPRNFTRTANRHDYALSPFAPTVLNKLADAGVSTYAVGKINDIFNGSGITNDMGHNKSNSHGVDTLIKTMGLSAFTKGFSFTNLVDFDALYGHRRNAHGYRDCLHEFDERLPEIIAAMKVDDLLLITADHGNDPTYAGTDHTREYVPLLAYSPSFTGNGVLPVGHYADISATIADNFGVDTAMIGESFLDKLIEGHHHHHH | not failed
7 | MNKPLVVDLDGTLLRSDMLIESVLAYSKKGIRPVFHLPFWLLEGKAILKARLADRVDLSVEVLPYNTEVIDFIKQAKREQRQIVLATGTHKMFAEKIAEHLGLFDLVIATENGINLSARSKRDCLIDQFGEKGFDYIGNSHDDVVVWNAADKTYLADPEPGVKKKMDLQGGVARVFQTRQSSLRTFFRALRPHQWLKNLLLFIPLIASHQLTNITLIADALLAFVLFSMTASSGYLINDLLDLESDRYHPRKRNRPLASGELPILIGLISAPLLFLASLSASLILLSATFTISLVTYYLLSVVYSQYLKKIPLVDTIMLAGLYTVRILAGAFACSIIPTFWILAFSVFFFLSLAMLKRYAELLDLQTKGDTAKTSGRGYYPSDIQIIASLGTASGYLSILVLALYIQDARTIAMYKTHELIWLACPILLFWISRMWMLTHRGQMHDDPVLFAIKDRTSLITATLFACIFFLAILV | failed
8 | MTQQNHLRGVLLASSACILWGISGVAASTLFINNPHLTAMWLTQVRMISAGLILLVWGMVAGKHPFKIWHHRHAAWTAVSYGLLGLIPVQLCYFEAVRVGNAPIATIIQFLGPFIISIYYFLFKHVTPSRIELIGMIMAFIGTLLIVTHGHLNSLAISPVILFWGGLSAIGVATNTLIPRTILPKYGALTVTGWGLLIAGLFLTLLQPMWRVHLTITWPQLGLLIVIILLGTVAPFLMFARSLSDILPTTASLMDAFEPLAATVFSITFLNVQLTSFDFIGGLLIILAVMALSLNTHKMLHFLRRRRAHSSS | failed
9 | MNQQPIKIAVFGLGGVGGYYGAMLALRAAATDGLLEVSWIARGAHLEAIRAAGGLRVVTPSRDFLARPTCVTDNPAEVGTVDYILFCTKDYDMERGVAEIRPMIGQNTKILPLLNGADIAERMRTYLPDTVVWKGCVYISARKSAPGLITLEADRELFYFGSGLPEQTDDEVRLAELLTAAGIRAYNPTDIDWYIMKKFMMISVTATATAYFDKPIGSILTEHEPELLSLLEEVAELFRAKYGQVPDDVVQQLLDKQRKMPPESTSSMHSDFLQGGSTEVETLTGYVVREAEALRVDLPMYKRMYRELVSRTAN | not failed
10 | MTTETFLVEIGTEELPPKALRSLAESFATHFTAELDNANITHGDVSWFAAPRRLAIKVANMAKSQADRIVEKRGPAIAQAFDAEGKPTKAAEGWARGNGITVDQAERLSTDKGEWLFYRAEVKGEAVNQLLAGMVSNALAKLPIPKLMRWGDKETHFVRPVHTVTLLLGDTLIDGEILGVQSARIIRGHRFMGEAEFTIDNADQYPEILYERGKVIADYENRKSIILHDARLAAEKLGGVADLSDSLVEEVTSLVEWPVVLTAKFEEKFLEVPAEALVYTMKGDQKYFPVYDKQGALLPHFIFVSNIESSDPQQIISGNEKVVRPRLADAEFFFKTDRKQRLEDNLPRLETVLFQKNLGSLRDKTDRIQALAGFIAEKMGADVNKATRAGLLSKCDLMTNMVFEFTDTQGVMGMHYARHDGEDEEVAVALKEQYQPRFAGDALPSNPVASAVAIAEKMDTLAGIFGIGQHPKGDKDPFALRRAALGVLRIIVEQDLPLDIEELTQEAARLYGDKLTNQNVVSDVVEFMLGRFRAWYQELGYSIDTIQAVLARRPTQPADFNARVKAVTYFRTLEEAAALAEANKRVSNILAKSADVKLNDKVLASVLKAPEEVQLAANLSVLQDKLAPLFAERKYQEALVELASLRDVVNNFFDKVMVMDKDEEIRVNRLTMLHELRELFLKVADISVLQ | failed
11 | MAEASIQIEVVYATVQRQVLMTVDVPAGSSVRQALALCGMDREFPELDLSHCPVGIFGKVVADPAARVLEAGERIEIYRPLLADPMEIRRLRAAKAREKRTLPG | failed
12 | MALDEAPAEARPGSRAVELEIDGRSRIFDIDDPDLPKWIDEEAFRSDDYPYKKKLDREEYEETLTKLQIELVKVQFWMQATGKRVMAVFEGRDAAGKGGAIHATTANMNPRSARVVALTKPTETERGQWYFQRYVATFPTAGEFVLFDRSWYNRAGVEPVMGFCTPDQYEQFLKEAPRFEEMIANEGIHLFKFWINIGREMQLKRFHDRRHDPLKIWKLSPMDIAALSKWDDYTGKRDRMLKETHTEHGPWAVIRGNDKRRSRINVIRHMLTKLDYDGKDEAAIGEVDEKILGSGPGFLR | not failed
13 | MSLNIKEASEKSGVSADTIRYYERIGLIPPIHRNESGVRKFGAEDLRWILFTRQMRRAGLSIEALIDYLALFREGEHTLEARAELLKKQRIELKNRIDVMQEALDRLDFKIDNYDTHLIPAQEELKDFNVERSNEGHHHHHH | not failed
14 | MAQGNPLTPEEIELLHAGDEENDNTDTLMVIRVPNDGSSATAISIPRDTYVHDENVGNLKINGVYRAYKNRKASELVNSGESDQKHIDELSKEAGRKALISSISDLTGVTVDHYAEVGLLGFVLLTNAVGGVDVCLNNDVYDEFSGADFKAGQQTLRDGQALAFVRQRHGLPRGDLDRIVRQQAFMASLVAKVLSSGTLTNPSKLSDLGEAVSRSVVIDKNWDVMSFANQLQNLAGGNVKFNTIPVTSIDGVGDYGESVVTVDKNQVHQFFDRLLNGNNGEETPTSDSEAPAENPHTSTTIDVLNATSTTGLASQVAGHLSAKHYTIGNIGNALEGMYHESQIVAADPNNEAVKAIAAELGGLPITQRNDLEHHHHHH | failed
15 | MELANKMLHALEHEDMALAKKYFDEVVQAGTDEEQYYLAEELFALGFLDETEDLYELLLAKYKDEGELLVRAAEVALEKDDMDAAQDYLEKVNKEDEAYIESLLVLADLYQMQGLFEVSEQKLLEAKQMAPNEPIIDFALGEYYLSQARFASAVQSYQTAVEAGLTIISNGAVSVYERIAEAFAASGAFEEALPYYERALEDKESVDTLFGMGLTAYQAKDYTKAIHALEHLREHDPSYTTLYSYLAKSYEENGEPEKAIAVLRDGLTQDEFNKEMFLEAGKLAVTLRLPEEAEEFYRQAIVLDEEFSEAIMQLNKLLLAKENYEGVIELVEGLGEEVISEPQIFWDVSVAYQETEQYNKAKANYELAYPHFTNNPTFLKEYGLFLREEGEHAKSQEVLRSYLELEPEDTEILSLFD | failed
16 | MGIMELARIDLSRDDLDKRIGGGIPHGSLIIIEGEESTGKSVLCQRLAYGFLQNRYSVTYVSTQLTTLEFIKQMNSLNYSINKKLLSGALLYIPVYPLIADNKKKDGFLKKVMETRAFYEKDVIIFDSISALIANDASEVNVDDLMAFFKRITALKKIIICTVNPKELPESVLTIIRTSATMLIRTELFTFGGDLKNLAKILKYNMAPGSYQKNIVFRVEPKIGIAVEIASVALEHHHHHH | not failed
17 | MPSRQLQILIRKTLPLVPDHVLIIGESGIAFSKATNLLGQEFEHILFDGRNGIHLEALAIAAGTLKMGGTLCLVLSDWENLSQQPDQDSLRWNGNQSAIATPNFIYHFKQCIERYHFPILREESAVEFPTVFYSNEHHKNATLAQQQIIENILQAEQDIYFLTAKRGRGKSALLGMLANQIQAPVYLTAPNKSAVHSVIEFSEGDIEFIAPDELALTLQTEPEFSQSAWLLVDEAAMIPLPLLQEYSRYFQHIVFSTTIHSYEGTGRGFELKFKRKIHRTFQHFELKQPLRWQENDPLEHFIDDLLLLNAEDDFQHFDYSNITYNIEENAKNLSFPCLRGKVPEGPKGGFRYS | failed

Reference: a protein production outcome set (Wang et al. 2014)
